In paper PMC9365671:
Read-outs that look alike come from different tables or passages of the source. Each block holds one substance with its values, some of them ahead of it.

Legend:
[1] = target: KIF5C-KLC1 heterotetramer (human) (UniProt O60282)
[2] = target: taxol-stabilised microtubules of porcine brain tubulin (porcine) (UniProt P02550); assay: single-molecule TIRF microscopy on microtubules; biotinylated taxol-stabilised MTs held on streptavidin-coated glass, motor in solution; 90 mM HEPES-KOH pH 7.6, 50 mM KCH3COO, 2 mM Mg(CH3COO)2, 1 mM EGTA, 10% glycerol, 2 mM ATP; landing rate = processive and non-processive events per MT length, time and motor concentration; parameters: landing rate: unit not given here
[3] = target: taxol-stabilised microtubules of porcine brain tubulin (porcine) (UniProt P02550); assay: as above

Sequence of KIF5B-Δhinge (Δ505-610)-mScarlet-StrepII (P33176 other isoform, or with tags, fused parts or gaps mutant): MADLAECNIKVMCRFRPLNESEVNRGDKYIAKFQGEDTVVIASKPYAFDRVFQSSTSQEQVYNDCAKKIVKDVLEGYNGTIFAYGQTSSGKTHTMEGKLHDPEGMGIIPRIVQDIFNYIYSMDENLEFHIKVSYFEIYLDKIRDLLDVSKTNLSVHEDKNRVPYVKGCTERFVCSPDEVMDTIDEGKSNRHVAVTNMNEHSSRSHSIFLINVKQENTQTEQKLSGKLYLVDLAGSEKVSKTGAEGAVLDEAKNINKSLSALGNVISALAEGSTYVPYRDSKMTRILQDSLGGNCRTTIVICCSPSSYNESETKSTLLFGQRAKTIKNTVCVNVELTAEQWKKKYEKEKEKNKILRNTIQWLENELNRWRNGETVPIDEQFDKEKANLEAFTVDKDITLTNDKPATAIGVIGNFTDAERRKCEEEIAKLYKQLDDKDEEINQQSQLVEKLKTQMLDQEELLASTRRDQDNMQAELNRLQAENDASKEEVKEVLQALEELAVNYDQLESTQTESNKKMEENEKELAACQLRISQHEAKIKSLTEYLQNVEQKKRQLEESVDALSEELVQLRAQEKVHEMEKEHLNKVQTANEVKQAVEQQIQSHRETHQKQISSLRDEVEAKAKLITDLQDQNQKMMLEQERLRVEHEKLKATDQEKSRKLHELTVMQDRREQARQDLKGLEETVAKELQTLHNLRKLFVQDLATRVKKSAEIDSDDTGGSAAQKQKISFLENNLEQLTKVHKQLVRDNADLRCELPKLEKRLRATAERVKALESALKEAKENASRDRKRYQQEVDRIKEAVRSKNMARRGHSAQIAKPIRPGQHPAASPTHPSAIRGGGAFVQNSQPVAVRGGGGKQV
Sequence of tail-truncated human KIF5C (aa 1-416)-mScarlet-StrepII (O60282 1-416): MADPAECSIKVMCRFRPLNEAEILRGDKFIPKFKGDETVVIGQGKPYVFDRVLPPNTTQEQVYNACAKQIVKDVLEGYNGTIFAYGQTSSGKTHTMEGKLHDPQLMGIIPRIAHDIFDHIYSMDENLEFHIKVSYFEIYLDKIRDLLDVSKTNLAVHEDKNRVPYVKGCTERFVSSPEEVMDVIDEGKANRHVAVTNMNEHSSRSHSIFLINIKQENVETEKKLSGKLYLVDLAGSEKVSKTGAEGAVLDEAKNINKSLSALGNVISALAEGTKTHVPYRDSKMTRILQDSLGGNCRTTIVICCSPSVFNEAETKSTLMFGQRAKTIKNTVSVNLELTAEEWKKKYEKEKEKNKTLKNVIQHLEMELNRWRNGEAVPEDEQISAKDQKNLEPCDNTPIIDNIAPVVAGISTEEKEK
Sequence of tail-truncated human KIF5A (aa 1-416)-mScarlet-StrepII (Q12840 1-416): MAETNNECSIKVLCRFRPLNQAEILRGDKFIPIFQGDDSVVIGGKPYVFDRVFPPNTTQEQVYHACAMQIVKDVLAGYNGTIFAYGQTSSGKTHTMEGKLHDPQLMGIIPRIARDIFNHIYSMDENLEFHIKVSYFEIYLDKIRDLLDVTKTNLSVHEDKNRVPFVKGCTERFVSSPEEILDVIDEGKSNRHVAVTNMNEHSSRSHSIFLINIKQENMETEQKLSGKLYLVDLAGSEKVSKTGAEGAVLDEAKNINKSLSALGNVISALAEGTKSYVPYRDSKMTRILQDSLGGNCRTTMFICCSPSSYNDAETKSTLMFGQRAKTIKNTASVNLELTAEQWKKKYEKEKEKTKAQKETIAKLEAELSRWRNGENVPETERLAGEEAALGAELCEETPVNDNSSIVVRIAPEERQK
Sequence of KIF5C-KLC1 heterotetramer (human) (O60282 whole entry, chain 1 of 2): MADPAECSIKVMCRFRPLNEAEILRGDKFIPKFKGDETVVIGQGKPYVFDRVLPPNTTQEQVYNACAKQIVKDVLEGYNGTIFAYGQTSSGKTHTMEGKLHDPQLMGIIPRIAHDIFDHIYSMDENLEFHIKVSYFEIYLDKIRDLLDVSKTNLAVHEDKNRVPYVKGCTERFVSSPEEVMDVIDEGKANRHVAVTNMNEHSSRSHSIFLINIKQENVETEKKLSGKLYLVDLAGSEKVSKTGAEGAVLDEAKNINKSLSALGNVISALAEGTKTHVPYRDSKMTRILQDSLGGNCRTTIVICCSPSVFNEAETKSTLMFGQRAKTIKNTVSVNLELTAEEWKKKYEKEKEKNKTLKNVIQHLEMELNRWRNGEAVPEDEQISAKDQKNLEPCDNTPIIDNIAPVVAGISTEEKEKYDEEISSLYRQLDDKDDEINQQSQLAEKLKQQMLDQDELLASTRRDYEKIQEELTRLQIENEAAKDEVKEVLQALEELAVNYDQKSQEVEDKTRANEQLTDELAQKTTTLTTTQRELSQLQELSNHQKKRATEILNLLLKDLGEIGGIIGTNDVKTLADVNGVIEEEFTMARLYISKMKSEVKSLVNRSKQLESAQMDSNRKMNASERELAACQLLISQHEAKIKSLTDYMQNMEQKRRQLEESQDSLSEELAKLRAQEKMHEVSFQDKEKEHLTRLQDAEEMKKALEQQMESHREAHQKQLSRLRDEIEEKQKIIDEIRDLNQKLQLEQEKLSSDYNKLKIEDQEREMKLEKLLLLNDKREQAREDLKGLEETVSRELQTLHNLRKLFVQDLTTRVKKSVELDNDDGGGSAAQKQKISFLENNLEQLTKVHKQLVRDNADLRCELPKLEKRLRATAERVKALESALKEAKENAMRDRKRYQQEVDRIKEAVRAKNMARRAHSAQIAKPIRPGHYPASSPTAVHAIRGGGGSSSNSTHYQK
Sequence of KIF5C-KLC1 heterotetramer (human) (Q07866 whole entry, chain 2 of 2, further chain): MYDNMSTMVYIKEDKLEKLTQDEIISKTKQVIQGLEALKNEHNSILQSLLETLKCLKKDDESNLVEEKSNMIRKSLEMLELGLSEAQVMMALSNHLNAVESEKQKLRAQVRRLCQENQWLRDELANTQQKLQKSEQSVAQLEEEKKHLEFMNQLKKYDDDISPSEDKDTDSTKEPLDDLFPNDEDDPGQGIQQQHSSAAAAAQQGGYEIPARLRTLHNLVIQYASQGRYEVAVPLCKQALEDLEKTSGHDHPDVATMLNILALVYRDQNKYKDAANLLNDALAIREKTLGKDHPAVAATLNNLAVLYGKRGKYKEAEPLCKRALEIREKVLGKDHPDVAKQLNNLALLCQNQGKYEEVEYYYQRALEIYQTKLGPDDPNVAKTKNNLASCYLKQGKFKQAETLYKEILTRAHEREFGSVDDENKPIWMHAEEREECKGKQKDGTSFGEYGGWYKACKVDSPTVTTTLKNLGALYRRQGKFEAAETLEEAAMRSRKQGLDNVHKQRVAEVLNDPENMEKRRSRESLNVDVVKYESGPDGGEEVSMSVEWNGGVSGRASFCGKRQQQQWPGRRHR
Sequence of full-length human KIF5B-mScarlet-StrepII (P33176 whole entry): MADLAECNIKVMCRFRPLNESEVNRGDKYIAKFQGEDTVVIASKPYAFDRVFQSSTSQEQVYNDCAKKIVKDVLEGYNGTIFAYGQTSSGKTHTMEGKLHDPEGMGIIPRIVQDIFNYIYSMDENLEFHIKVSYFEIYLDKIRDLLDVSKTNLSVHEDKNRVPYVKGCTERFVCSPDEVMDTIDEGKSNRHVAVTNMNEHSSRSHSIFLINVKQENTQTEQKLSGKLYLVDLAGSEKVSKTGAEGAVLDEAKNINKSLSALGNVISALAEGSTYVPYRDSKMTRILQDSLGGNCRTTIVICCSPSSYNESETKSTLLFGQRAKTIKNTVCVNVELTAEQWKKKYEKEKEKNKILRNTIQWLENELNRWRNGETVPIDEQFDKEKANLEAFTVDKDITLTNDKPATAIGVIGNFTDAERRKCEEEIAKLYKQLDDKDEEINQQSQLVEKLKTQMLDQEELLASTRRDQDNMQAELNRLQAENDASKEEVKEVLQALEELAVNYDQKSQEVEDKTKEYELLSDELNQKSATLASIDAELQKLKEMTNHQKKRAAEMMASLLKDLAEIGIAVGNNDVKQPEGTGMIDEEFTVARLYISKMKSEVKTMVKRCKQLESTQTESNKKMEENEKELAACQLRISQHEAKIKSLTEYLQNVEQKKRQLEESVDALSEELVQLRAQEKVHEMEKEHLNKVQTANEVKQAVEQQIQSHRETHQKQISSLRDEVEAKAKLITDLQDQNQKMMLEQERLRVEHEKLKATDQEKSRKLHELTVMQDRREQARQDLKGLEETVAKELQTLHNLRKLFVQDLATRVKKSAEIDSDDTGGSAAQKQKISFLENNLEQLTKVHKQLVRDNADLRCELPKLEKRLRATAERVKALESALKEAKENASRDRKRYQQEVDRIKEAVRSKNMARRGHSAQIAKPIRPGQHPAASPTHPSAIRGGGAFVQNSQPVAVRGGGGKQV
Sequence of KIF5B-IAK/AAA-mScarlet-StrepII (P33176 whole entry I920A/K922A): as the sequence (P33176 whole entry) above, with I920A, K922A counted along it
Sequence of tail-truncated human KIF5B (aa 1-420)-mScarlet-StrepII (P33176 1-420): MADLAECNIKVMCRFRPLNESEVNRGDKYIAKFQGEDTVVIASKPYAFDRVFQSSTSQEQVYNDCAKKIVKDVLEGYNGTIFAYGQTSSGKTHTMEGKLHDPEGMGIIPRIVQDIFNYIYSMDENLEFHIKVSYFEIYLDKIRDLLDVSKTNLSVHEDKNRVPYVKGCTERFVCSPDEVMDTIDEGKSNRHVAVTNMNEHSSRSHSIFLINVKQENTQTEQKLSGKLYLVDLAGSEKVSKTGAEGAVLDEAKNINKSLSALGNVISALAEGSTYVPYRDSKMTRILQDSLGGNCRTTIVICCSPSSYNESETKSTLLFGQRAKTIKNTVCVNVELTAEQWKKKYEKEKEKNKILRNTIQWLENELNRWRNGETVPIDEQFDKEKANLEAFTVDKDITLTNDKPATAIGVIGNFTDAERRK

Substance: KIF5A-KLC1 heterotetramer (from UniProt Q12840 1-1032; Q07866 1-573) (complex)
landing rate [2]: 0.1

Substance: KIF5B-IAK/AAA-mScarlet-StrepII (from UniProt P33176 1-963) (natural protein)
landing rate [3]: 7 /μm/s/μM

Substance: KIF5B-KLC1 heterotetramer (from UniProt P33176 1-963; Q07866 1-573) (complex)
landing rate (Motors/μm/s/μm) [2]: 0.06

Substance: KIF5B-Δhinge (Δ505-610)-mScarlet-StrepII (from UniProt P33176 1-963) (natural protein)
landing rate [3]: 22.8 /μm/s/μM

Substance: KIF5C-KLC1 heterotetramer (from UniProt O60282 1-957; Q07866 1-573) (complex)
landing rate [2]: 0.06

Substance: tail-truncated human KIF5A (aa 1-416)-mScarlet-StrepII (from UniProt Q12840 1-416) (domain or fragment)
landing rate (motors/µm/s/µM) [2]: 162

Substance: tail-truncated human KIF5B (aa 1-420)-mScarlet-StrepII (from UniProt P33176 1-420) (domain or fragment)
landing rate (motors/µm/s/µM) [2]: 146

Substance: tail-truncated human KIF5C (aa 1-416)-mScarlet-StrepII (from UniProt O60282 1-416) (domain or fragment)
landing rate (motors/µm/s/µM) [2]: 147

Now from value to substance:

landing rate of 10 nM KIF5C-KLC1 on MTs (ATP) with 500 nM nesprin-4 WDAA (0.1 without) [1]: 0.2 /μm/s/μM
Substance: 6xHis-2xStrepII-sfGFP-nesprin-4 (aa 1-240) WD/AA (from UniProt Q8N205-2 1-240) (domain or fragment)

landing rate [3]: 6.2 /μm/s/μM
Substance: KIF5B-E178A-mScarlet-StrepII (from UniProt P33176 1-963) (natural protein)

landing rate [3]: 5.4 /μm/s/μM
Substance: KIF5B-H129A-mScarlet-StrepII (from UniProt P33176 1-963) (natural protein)

landing rate (Motors/μm/s/μm) [2]: 0.08
Substance: full-length human KIF5B-mScarlet-StrepII (from UniProt P33176 1-963) (natural protein)
